Results taken from patent US20250270320A1 (EUTILEX, published 2025).
Substitutions are numbered along the chain they refer to. Each block holds one binder with its values, some of them ahead of it.

Experiments:
[1] = molecular target: T1, recombinant human PD-1-His protein (ECD) (human, UniProt Q15116 25-170); test: SPR, purified antibody, PD-1 antigen
T1 construct: extracellular domain; Used as ELISA coat and SPR partner; also called rhprotein; antigen; not shown: His tag

[2] = molecular target: T2, human PD-1 expressed on cells (human, UniProt Q15116 25-288); test: flow cytometry on cells overexpressing hPD-1
T2 construct: whole, on cells; also called hPD-1; 293 cell line stably expressing human PD-1

[3] = molecular target: T1, recombinant human PD-1-His protein (ECD); test: Q-ELISA of purified antibody on recombinant human PD-1-His, drawn table
Procedure: For ELISA, the recombinant human PD-1-His protein was O/N coated on a 96-well ELISA plate at 4° C., and blocked with 5% non-fat skim milk at RT for 1 hr. […]

[4] = molecular target: T2, human PD-1 expressed on cells; test: flow cytometry on hPD-1/293 cells, 2nd-hIgG-PE detection; Ctl 2nd-hIgG 0.17, cell only 0.03
Text: (§1) In addition, each purified humanized antibody was bound to 293 cells expressing human PD-1 and analyzed by flow cytometry.

[5] = molecular target: T2, human PD-1 expressed on cells; test: flow cytometry on activated hCD8 T cells from human blood, 2nd-hIgG-PE detection; 2nd-hIgG-PE alone 1.73
[6] = molecular target: T1, recombinant human PD-1-His protein (ECD); test: SPR; number in the sensorgram panel without name or unit, taken as KD in M because 9.655e-9 stands for 9.7 nM in FIG 9d
[7] = molecular target: T1, recombinant human PD-1-His protein (ECD); test: SPR
[8] = molecular target: T2, human PD-1 expressed on cells; test: cell-based or functional assay
[9] = molecular target: T1, recombinant human PD-1-His protein (ECD); test: SPR, drawn table; the column heads print no unit, units as in the table of FIG 7b
[10] = molecular target: T3, mouse PD-1 antigen (mouse, UniProt Q02242 25-167, limits assumed); test: ELISA on the PD-1 antigen of the species, antibody 500 to 3.90625 ng in 1/2 steps
T3 construct: ELISA antigen
T3 sequence (looked up): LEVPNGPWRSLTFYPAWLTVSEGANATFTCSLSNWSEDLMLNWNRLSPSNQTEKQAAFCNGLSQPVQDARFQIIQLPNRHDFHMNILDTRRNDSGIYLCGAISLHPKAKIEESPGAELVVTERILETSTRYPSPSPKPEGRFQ

[11] = molecular target: T1, recombinant human PD-1-His protein (ECD); test: SPR, drawn table; no unit in the KD column, the Affinity column gives 9.7 nM (the text prints only 9.7 nM)
[12] = molecular target: T1, recombinant human PD-1-His protein (ECD); test: SPR, drawn table; no unit in the KD column, the Affinity column gives 5.8 nM (the text prints only 5.8 nM)
[13] = molecular target: T1, recombinant human PD-1-His protein (ECD); test: ELISA on coated recombinant human PD-1-His protein
Procedure: For ELISA, the recombinant human PD-1-His protein was O/N coated on a 96-well ELISA plate at 4° C., and blocked with 5% non-fat skim milk at RT for 1 hr. The antibody was treated with ½ serial dilution of each hybridoma culture medium from 100 ul at RT for 2 hr, and detected by anti-mIgG-HRP.
as §1

T2 sequence (Q15116 25-288): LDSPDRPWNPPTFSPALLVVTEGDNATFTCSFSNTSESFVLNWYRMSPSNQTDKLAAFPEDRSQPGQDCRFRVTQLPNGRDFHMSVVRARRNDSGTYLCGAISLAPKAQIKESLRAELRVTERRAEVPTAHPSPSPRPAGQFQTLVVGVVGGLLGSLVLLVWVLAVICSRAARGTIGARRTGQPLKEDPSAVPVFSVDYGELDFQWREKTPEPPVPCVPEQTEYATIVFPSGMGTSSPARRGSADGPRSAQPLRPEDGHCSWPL
T1 sequence (Q15116 25-170): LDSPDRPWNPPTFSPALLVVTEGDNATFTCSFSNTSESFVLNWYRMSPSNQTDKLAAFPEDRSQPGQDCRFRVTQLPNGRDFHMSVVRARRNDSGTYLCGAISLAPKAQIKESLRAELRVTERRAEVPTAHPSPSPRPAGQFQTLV

Kd [1]: 57.2 nM
koff [1]: 0.00492 s⁻¹
kon [1]: 86000 M⁻¹ s⁻¹
percent of cells in the positive quadrant [2]: 96.4%
OD=405, row 1 of 8 (1/2 serial dilution from 500ng) [3]: 3.42
OD=405, row 2 of 8 (1/2 serial dilution from 500ng) [3]: 3.39
OD=405, row 3 of 8 (1/2 serial dilution from 500ng) [3]: 3.42
OD=405, row 4 of 8 (1/2 serial dilution from 500ng) [3]: 3.34
OD=405, row 5 of 8 (1/2 serial dilution from 500ng) [3]: 3.22
OD=405, row 6 of 8 (1/2 serial dilution from 500ng) [3]: 2.74
OD=405, row 7 of 8 (1/2 serial dilution from 500ng) [3]: 1.96
OD=405, row 8 of 8 (1/2 serial dilution from 500ng) [3]: 1.16
percent of cells in the positive quadrant [4]: 95.3%
percent of cells in the positive quadrant [5]: 6.39%
Kd [6]: 211 nM
B1: humanized antibody 7C5 (antibody, V domains shown)
VH: EVQLVESGGGLVKPGGSLRLSCAASGFTFSSFGMSWVRQAPGKGLELVATIYSNGDYTYYPDSVKGRFTVSRDNAKNSLYLQMNSLRAEDTAVYYCARYYGNYGGYFDYWGQGTLVTVSS
VL: AIQMTQSPSSLSASVGDRVTITCKASQSVSNDVAWYQQKPGKAPKLLIYYASNRYTGVPSRFSGSGSGTDFTLTISSLQPEDFATYYCQQDYSSPPTFGGGTKVEIK
notes: Humanized antibody

Kd [7]: 9.7 nM
EC50 (read off the curve); PD-1/PD-L1 Blockade Bioassay, luciferase RAU [8]: ~0.7 µg/mL
percent of cells in the positive quadrant [2]: 97.3%
koff [9]: 0.000632 s⁻¹
kon [9]: 65500 M⁻¹ s⁻¹
binding result [10]: no binding (tested: 500 ng)
percent of cells in the positive quadrant [5]: 20.3%
Kd [11]: 9.65 nM
B2: 7C5-T15-01 (antibody, human IgG4, V domains shown)
VH: B1 VH
VL: B1 VL with S30W, N31D, V33L, A34T

Kd [7]: 5.8 nM
EC50 (read off the curve); PD-1/PD-L1 Blockade Bioassay, luciferase RAU [8]: ~0.8 µg/mL
koff [9]: 0.000508 s⁻¹
kon [9]: 87800 M⁻¹ s⁻¹
binding result [10]: no binding (tested: 500 ng)
percent of cells in the positive quadrant [5]: 17%
Kd [12]: 5.79 nM
B3: 2B3W-T14-05 (antibody, human IgG4, V domains shown)
VH: EVQLVESGGGLVQPGGSLRLSCAASGFVFSNYDMSWVRQAPGKGLEWVAYITIGGGTTYYPDTVKGRFTISRDNAKNSLYLQMNSLRAEDTAVYYCARWRYDPLFAMDYWGQGTTVTVSS
VL: DIVLTQTPLSLSVTPGQPASISCRASESVTDYGISFMNWFLQKPGQPPQLLIYAASNQGSGVPDRFSGSGSGTDFTLKISRVEAEDVGVYYCQQSKEVPWTFGQGTKVEIK
notes: also called EU135-T14.05

binding result [13]: no binding
B4: humanized antibody 2B3R (antibody, V domains shown)
VH: B3 VH with W99R, R100V, F105Y
VL: B3 VL with T30D, D31N
notes: Humanized antibody
